Values quoted from earlier work as cited in article PMC5432642.

Target: C3b C3b (Homo sapiens) (UniProt P01024)
Sequence (P01024 566-670): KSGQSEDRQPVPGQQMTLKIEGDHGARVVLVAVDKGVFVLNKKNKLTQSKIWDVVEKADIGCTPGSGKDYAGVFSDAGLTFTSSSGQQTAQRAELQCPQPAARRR

Chain of FH19–20 FH19-20 (P08603 1107-1231): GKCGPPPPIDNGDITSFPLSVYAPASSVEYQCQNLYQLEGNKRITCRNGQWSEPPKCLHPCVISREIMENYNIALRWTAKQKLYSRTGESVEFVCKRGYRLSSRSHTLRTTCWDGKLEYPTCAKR

- Kd: 5 µM
Substance: FH19–20 FH19-20 (from UniProt P08603)
